Test results published in IntAct's records for PubMed 17129783.

B1: Kinetochore protein ndc-80 (Caenorhabditis elegans), Q17635 (parent)
chain: MFGDRRKTGGLNLNGRASIAITPTKRFTDYTGSTSVRKTDARPSLSQPRVSLFNTKNSSVAPRDVKSLVSLNGSKIYNFLVEYESSDAPSEQLIMKPRGKNDFIACFELIYQHLSKDYEFPRHERIEEEVSQIFKGLGYPYPLKNSYYQPMGSSHGYPHLLDALSWLIDIIRINSAVSEDTQNILFGDFMEQGKAQEKTLNYAWMTSTFRDYTNDRKAAENPSSSYWDDTKHRLRKYFEQSNEFEDMTKTAASALEMLNYECDEIEADKGNEASLKEEISRIRDDIRKAKDYLEQNLHVKQHMEKELAMVKSEQEEKISENEKVQKMVDDLKNKIELQKQIHGLTGKEVRQMNLDNNKDKEVVLEIQSELDRLSKETWKLKDEDFFKEQKSKFIHLAEQIMKILSGLNIQMNLEPLRAPTNERDLKDYWETLNKIWVPEISRQLHQRKLELETEQSRFSNKAVTAEERIQIQSETLCEAKKNEAREERIRRNERDSWKDARKHIEQRYEQLLNEKEVLLKQMKLDGSLEKEIEDETARMSATGEEHIQKRSQLEAGIRQILDLMVVEIAEIENKKIGFHVQCAGIEKAVL
partner: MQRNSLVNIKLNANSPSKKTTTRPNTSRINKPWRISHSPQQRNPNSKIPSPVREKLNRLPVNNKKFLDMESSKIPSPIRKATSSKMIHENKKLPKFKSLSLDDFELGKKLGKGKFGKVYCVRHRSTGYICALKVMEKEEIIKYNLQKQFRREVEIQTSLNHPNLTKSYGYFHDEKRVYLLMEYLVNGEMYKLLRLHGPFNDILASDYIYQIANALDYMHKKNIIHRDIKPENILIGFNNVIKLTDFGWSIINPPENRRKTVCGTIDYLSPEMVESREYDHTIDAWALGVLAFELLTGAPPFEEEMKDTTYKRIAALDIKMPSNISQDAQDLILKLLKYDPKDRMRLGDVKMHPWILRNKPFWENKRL

Variants of: B1
Conditions: with aurk_yeast IPL1, P38991

effect of a mutation on the interaction	Variant
disrupting interaction	MFGDRRKAGGLNLNGRAAIAITPTKRFTDYTGSTSVRKTDARPALSQPRVALFNTKNSSVAPRDVKSLVSLNGSKIYNFLVEYESSDAPSEQLIMKPRGKNDFIACFELIYQHLSKDYEFPRHERIEEEVSQIFKGLGYPYPLKNSYYQPMGSSHGYPHLLDALSWLIDIIRINSAVSEDTQNILFGDFMEQGKAQEKTLNYAWMTSTFRDYTNDRKAAENPSSSYWDDTKHRLRKYFEQSNEFEDMTKTAASALEMLNYECDEIEADKGNEASLKEEISRIRDDIRKAKDYLEQNLHVKQHMEKELAMVKSEQEEKISENEKVQKMVDDLKNKIELQKQIHGLTGKEVRQMNLDNNKDKEVVLEIQSELDRLSKETWKLKDEDFFKEQKSKFIHLAEQIMKILSGLNIQMNLEPLRAPTNERDLKDYWETLNKIWVPEISRQLHQRKLELETEQSRFSNKAVTAEERIQIQSETLCEAKKNEAREERIRRNERDSWKDARKHIEQRYEQLLNEKEVLLKQMKLDGSLEKEIEDETARMSATGEEHIQKRSQLEAGIRQILDLMVVEIAEIENKKIGFHVQCAGIEKAVL [T8A;S18A;S44A;S51A]
